According to IntAct's records for PubMed 24255178:

B1: Sarcolemmal membrane-associated protein (Homo sapiens), Q14BN4 (parent)
chain: MPSALAIFTCRPNSHPFQERHVYLDEPIKIGRSVARCRPAQNNATFDCKVLSRNHALVWFDHKTGKFYLQDTKSSNGTFINSQRLSRGSEESPPCEILSGDIIQFGVDVTENTRKVTHGCIVSTIKLFLPDGMEARLRSDVIHAPLPSPVDKVAANTPSMYSQELFQLSQYLQEALHREQMLEQKLATLQRLLAITQEASDTSWQALIDEDRLLSRLEVMGNQLQACSKNQTEDSLRKELIALQEDKHNYETTAKESLRRVLQEKIEVVRKLSEVERSLSNTEDECTHLKEMNERTQEELRELANKYNGAVNEIKDLSDKLKVAEGKQEEIQQKGQAEKKELQHKIDEMEEKEQELQAKIEALQADNDFTNERLTALQVRLEHLQEKTLKECSSLEHLLSKSGGDCTFIHQFIECQKKLIVEGHLTKAVEETKLSKENQTRAKESDFSDTLSPSKEKSSDDTTDAQMDEQDLNEPLAKVSLLKDDLQGAQSEIEAKQEIQHLRKELIEAQELARTSKQKCFELQALLEEERKAYRNQVEESTKQIQVLQAQLQRLHIDTENLREEKDSEITSTRDELLSARDEILLLHQAAAKVASERDTDIASLQEELKKVRAELERWRKAASEYEKEITSLQNSFQLRCQQCEDQQREEATRLQGELEKLRKEWNALETECHSLKRENVLLSSELQRQEKELHNSQKQSLELTSDLSILQMSRKELENQVGSLKEQHLRDSADLKTLLSKAENQAKDVQKEYEKTQTVLSELKLKFEMTEQEKQSITDELKQCKNNLKLLREKGNNKPWPWMPMLAALVAVTAIVLYVPGLARASP
partner: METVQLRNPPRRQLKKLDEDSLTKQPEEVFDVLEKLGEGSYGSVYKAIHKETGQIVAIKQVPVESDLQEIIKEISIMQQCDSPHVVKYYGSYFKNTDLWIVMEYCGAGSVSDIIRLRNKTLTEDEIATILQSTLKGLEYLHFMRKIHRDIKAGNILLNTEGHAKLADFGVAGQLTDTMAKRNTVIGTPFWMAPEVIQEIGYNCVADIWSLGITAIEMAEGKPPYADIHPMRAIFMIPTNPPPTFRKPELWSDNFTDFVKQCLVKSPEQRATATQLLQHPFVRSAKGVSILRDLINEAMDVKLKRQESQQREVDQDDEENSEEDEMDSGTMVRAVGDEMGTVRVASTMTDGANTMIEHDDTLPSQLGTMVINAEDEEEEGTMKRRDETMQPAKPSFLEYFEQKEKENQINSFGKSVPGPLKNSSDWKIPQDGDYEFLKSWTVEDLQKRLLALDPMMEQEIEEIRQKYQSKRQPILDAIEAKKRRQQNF
B2: Sarcolemmal membrane-associated protein (Homo sapiens), Q14BN4 (parent)
chain: B1 chain
partner: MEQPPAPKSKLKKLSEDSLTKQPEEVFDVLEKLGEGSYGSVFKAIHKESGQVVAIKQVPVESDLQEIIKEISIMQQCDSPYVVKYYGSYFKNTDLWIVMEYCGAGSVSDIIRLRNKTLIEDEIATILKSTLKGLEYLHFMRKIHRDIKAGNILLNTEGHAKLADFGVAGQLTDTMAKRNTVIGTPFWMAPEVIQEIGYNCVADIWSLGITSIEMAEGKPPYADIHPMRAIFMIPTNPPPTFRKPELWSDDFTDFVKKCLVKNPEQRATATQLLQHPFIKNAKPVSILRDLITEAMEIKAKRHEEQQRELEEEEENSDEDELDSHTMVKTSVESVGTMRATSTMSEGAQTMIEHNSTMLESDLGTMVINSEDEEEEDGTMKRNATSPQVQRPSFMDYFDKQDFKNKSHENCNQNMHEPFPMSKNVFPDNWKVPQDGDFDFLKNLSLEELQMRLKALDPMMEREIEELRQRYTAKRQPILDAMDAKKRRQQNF
B3: Serine/threonine-protein kinase 3 (Homo sapiens), Q13188 (parent)
chain: B2 partner
partner: B1 chain

Variants of: B1
Settings: with stk4_human STK4, Q13043

Row | Variant | effect of a mutation on the interaction
1 | R32A | decreasing interaction
2 | H55A | decreasing interaction

Variants of: B2
Settings: with stk3_human STK3, Q13188

Row | Variant | effect of a mutation on the interaction
3 | R32A | decreasing interaction
4 | H55A | decreasing interaction

Variants of: B3
Settings: with slmap_human SLMAP, Q14BN4

Row | Variant | effect of a mutation on the interaction
5 | MEQPPAPKSKLKKLSEDSLTKQPEEVFDVLEKLGEGSYGSVFKAIHKESGQVVAIKQVPVESDLQEIIKEISIMQQCDSPYVVKYYGSYFKNTDLWIVMEYCGAGSVSDIIRLRNKTLIEDEIATILKSTLKGLEYLHFMRKIHRDIKAGNILLNTEGHAKLADFGVAGQLTDTMAKRNAVIGTPFWMAPEVIQEIGYNCVADIWSLGITSIEMAEGKPPYADIHPMRAIFMIPTNPPPTFRKPELWSDDFTDFVKKCLVKNPEQRATATQLLQHPFIKNAKPVSILRDLITEAMEIKAKRHEEQQRELEEEEENSDEDELDSHTMVKTSVESVGTMRATSTMSEGAQTMIEHNSTMLESDLGTMVINSEDEEEEDGTMKRNATSPQVQRPSFMDYFDKQDFKNKSHENCNQNMHEPFPMSKNVFPDNWKVPQDGDFDFLKNLSLEELQMRLKALDPMMEREIEELRQRYTAKRQPILDAMDAKKRRQQNF [T180A] | decreasing interaction
